# Literature values as cited in article PMC6431256.
# Molecular target: tau peptide (Homo sapiens) (UniProt P10636)
# Experiment: ITC
# Sequence of tau peptide (Homo sapiens) (P10636 2-758): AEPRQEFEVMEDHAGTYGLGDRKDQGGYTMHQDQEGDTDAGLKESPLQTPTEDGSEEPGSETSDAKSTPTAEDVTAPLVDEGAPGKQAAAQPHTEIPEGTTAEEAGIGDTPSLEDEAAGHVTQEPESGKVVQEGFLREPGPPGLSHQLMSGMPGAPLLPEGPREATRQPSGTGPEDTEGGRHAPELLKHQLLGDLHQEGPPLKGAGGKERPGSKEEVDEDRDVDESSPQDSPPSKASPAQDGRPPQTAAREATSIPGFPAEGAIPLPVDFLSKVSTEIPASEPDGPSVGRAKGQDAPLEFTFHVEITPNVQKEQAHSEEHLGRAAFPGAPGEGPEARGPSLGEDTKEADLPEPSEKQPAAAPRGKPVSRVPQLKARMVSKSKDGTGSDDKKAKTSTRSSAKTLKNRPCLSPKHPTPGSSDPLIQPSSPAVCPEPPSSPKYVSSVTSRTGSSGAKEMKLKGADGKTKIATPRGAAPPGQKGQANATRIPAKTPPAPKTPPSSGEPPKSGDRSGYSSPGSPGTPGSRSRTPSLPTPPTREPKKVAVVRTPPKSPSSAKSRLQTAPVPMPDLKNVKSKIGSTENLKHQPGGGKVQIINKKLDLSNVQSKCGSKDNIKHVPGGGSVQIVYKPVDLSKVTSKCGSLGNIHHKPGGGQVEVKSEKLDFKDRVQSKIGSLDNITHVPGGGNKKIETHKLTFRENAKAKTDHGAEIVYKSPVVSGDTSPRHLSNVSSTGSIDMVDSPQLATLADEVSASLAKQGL
# Sequence of Pin1 (Q13526 whole entry): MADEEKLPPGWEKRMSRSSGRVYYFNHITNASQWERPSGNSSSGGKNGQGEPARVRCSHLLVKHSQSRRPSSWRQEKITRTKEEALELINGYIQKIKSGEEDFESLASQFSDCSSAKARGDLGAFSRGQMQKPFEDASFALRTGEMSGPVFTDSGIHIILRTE
substance,measurement,value
Pin1 (from UniProt Q13526),Kd,200 µM
